In patent US20140127724A1 one finds phycoerythrin fluorescence (MFI) data, which are given here for 1 substance.

Where “and” joins values, the source holds several entries; their conditions need not be identical. Equal entries are not always repeated.

Assay [1] deals with human fragile X mental retardation protein (FMRP) (human) (UniProt Q06787). As to the kind of experiment: Luminex capture immunoassay, 10 ug human lymphoblastoid control extract.
Assay [2] shares this target. Briefly: Luminex capture immunoassay, 40 ug human lymphoblastoid control extract.
Assay [3] shares this target. Briefly: Luminex capture immunoassay, 2.5 ug human lymphoblastoid control extract.
For assay [4], the target named is mouse fragile X mental retardation protein (FMRP) (mouse) (UniProt P35922). Briefly: Luminex capture immunoassay, 2.5 ug mouse brain extract.
The target is the same in assay [5]. As to the kind of experiment: Luminex capture immunoassay, 20 ug mouse brain extract.
For assay [6] the target is unchanged. Briefly: Luminex capture immunoassay, 80 ug mouse brain extract.
The target is the same in assay [7]. As to the kind of experiment: Luminex capture immunoassay, 10 ug mouse brain extract.
The target of assay [8] is human fragile X mental retardation protein (FMRP) (human) (UniProt Q06787). Briefly: Luminex capture immunoassay, 20 ug human lymphoblastoid control extract.
Assay [9] has the same target. Briefly: Luminex capture immunoassay, 1.25 ug human lymphoblastoid control extract.
For assay [10], the target named is mouse fragile X mental retardation protein (FMRP) (mouse) (UniProt P35922). Briefly: Luminex capture immunoassay, 5 ug mouse brain extract.
The target is the same in assay [11]. Briefly: Luminex capture immunoassay, 40 ug mouse brain extract.
Assay [12] has the same target. As to the kind of experiment: Luminex capture immunoassay, 1.25 ug mouse brain extract.
The target in assay [13] is human fragile X mental retardation protein (FMRP) (human) (UniProt Q06787). Briefly: Luminex capture immunoassay, 5 ug human lymphoblastoid control extract.
The target is the same in assay [14]. As to the kind of experiment: Luminex capture immunoassay, 80 ug human lymphoblastoid control extract.

anti-PrP mAb 3F4 (antibody): the phycoerythrin fluorescence (MFI) in assay [1] is 5 MFI and 4 MFI; in [2], 5 MFI and 6 MFI; in [3] it was 6 MFI; in assay [4], 7 MFI and 6 MFI; in assay [5] it was 17.5 MFI and 18 MFI; in [6], 51 MFI and 49 MFI. Further, the phycoerythrin fluorescence (MFI) in assay [7] was 11 MFI and 10 MFI; in assay [8] it was 5 MFI and 6 MFI; in [9], 5 MFI; in assay [10], 7 MFI and 8 MFI; in [11], 36 MFI and 39.5 MFI; in [12], 7 MFI and 5 MFI. Moreover, the phycoerythrin fluorescence (MFI) in assay [13] is 5 MFI; in assay [14] it was 6 MFI.
